Assay results: patent US9766239
Where no end group is shown, it is not given here. scaffold 1571 = not defined here

How the values were obtained:
[1] = molecular target: Norovirus surrogate virus-like particle, type GII.4 Minerva strain (human Norovirus GII.4 Minerva strain); assay: direct ELISA on purified GII.4 nVLP
[2] = molecular target: GII.4 Sydney# Norovirus VLP (Norovirus GII.4 Sydney strain); assay: capture of VLP from a dilute solution by the synbody
[3] = molecular target: Norovirus surrogate virus-like particle, type GII.4 Minerva strain (human Norovirus GII.4 Minerva strain); assay: as above
[4] = molecular target: Norovirus surrogate virus-like particle, type GII.4 Minerva strain (human Norovirus GII.4 Minerva strain); assay: SPR, unpurified peptide against nVLP GII.4

Binder	Kd [1] [nM]	Enrichment Factor from 1 ng/µL solution [2]	Enrichment Factor from 1 ng/µL solution [3]	% Stability [4] [%]	Avg Binding (Spot 1/2) [4]	koff [4] [s⁻¹]
RWVRVKLRSHTELNRYIGSC(scaffold 1571) (designed binder, reading uncertain; also: two peptides coupled by Cys to scaffold 1571 (dimer)) [nVLP93-93-1571]	4	3	10	–	–	–
VWARKNNKRKKDFNAGWGSC(scaffold 1571) (designed binder, reading uncertain; also: two peptides coupled by Cys to scaffold 1571 (dimer)) [nVLP53-53-1571]	1	–	–	–	–	–
RWHRVKLRSHTELNRYIGSC [Mut Peptide-92]	–	–	–	57	230	0.00355
RWVRVKLRSHTKLNRYIGSC [Mut Peptide-94]	–	–	–	63	358	0.00294
SWARSNNKRSKAFNLGWGSC [Mut Peptide-78]	–	–	–	46	169	0.00431
AWARSNNSRSKAFNLGWGSC(scaffold 1571) (designed binder, reading uncertain; also: two peptides coupled by Cys to scaffold 1571 (dimer)) [nVLP81-81-1571]	3	–	–	–	–	–
VWARKNNSRSKDFNAGWGSC(scaffold 1571) (designed binder, reading uncertain; also: two peptides coupled by Cys to scaffold 1571 (dimer)) [nVLP55-55-1571]	9	–	–	–	–	–
RWVRVKLRSHTELNRYIGSC [Mut Peptide-93]	–	–	–	60	274	0.00332
DWARKNNKRKMNFNLGWGSC(scaffold 1571) (designed binder, reading uncertain; also: two peptides coupled by Cys to scaffold 1571 (dimer)) [nVLP60-60-1571]	2	–	–	–	–	–
RWHRVKLRSHTELNRYIGSC(scaffold 1571) (designed binder, reading uncertain; also: two peptides coupled by Cys to scaffold 1571 (dimer)) [nVLP92-92-1571]	3	–	3	–	–	–
VWARKNNKRKKDFNAGWGSC [Mut Peptide-53]	–	–	–	51	189	0.00408
SWARSNNKRSKAFNLGWGSC(scaffold 1571) (designed binder, reading uncertain; also: two peptides coupled by Cys to scaffold 1571 (dimer)) [nVLP78-78-1571]	5	–	–	–	–	–
AWARSNNSRSKAFNLGWGSC [Mut Peptide-81]	–	–	–	45	128	0.00455
RWVRVKLRSHTKLNRYIGSC(scaffold 1571) (designed binder, reading uncertain; also: two peptides coupled by Cys to scaffold 1571 (dimer)) [nVLP94-94-1571]	1	3	7	–	–	–
DWARKNNKRKMNFNLGWGSC [Mut Peptide-60]	–	–	–	44	134	0.00487
